Test results as given in patent publication US20020031818A1, “Modification of Mdm2 activity” (priority 2000, published 2002).

Legend:
GST-Mdm2 = target: T1, GST-Mdm2 (Homo sapiens, UniProt Q00987); experiment: In vitro ubiquitination of GST-Mdm2 (self-ubiquitination); assay type: biochemical; settings: bacculovirus-purified p19ARF added to GST-Mdm2
T1 construct: made in house
Text: GST-Mdm2 was subjected to an in vitro ubiquitination reaction using purified forms of E1, E2 and Ub-HA in the presence of ATP. […] Glutathione bead-coupled GST-Mdm2 in its ubiquitinated or non-ubiquitinated forms was washed and analyzed on immunoblots using antibodies to HA (upper panel). Middle panel depicts the level of Mdm2 expression and the lower panel, the level of p19^ARF added to the reaction.

[1] = tested on: p53 transcriptional activity; experiment: p21-luc luciferase reporter assay in EJ cells; assay type: cell-based, mouse; settings: EJ cells transfected with p53, p19ARF and p21 promoter luciferase construct
Text: FIG. 14A-14E. A. In vitro ubiquitination of Mdm2 is inhibited by p19^ARF. GST-Mdm2 was subjected to an in vitro ubiquitination reaction using purified forms of E1, E2 and Ub-HA in the presence of ATP. Addition of bacculovirus-purified p19^ARF at the indicated concentrations blocked Mdm2 ubiquitination. Glutathione bead-coupled GST-Mdm2 in its ubiquitinated or non-ubiquitinated forms was washed and analyzed on immunoblots using antibodies to HA (upper panel). Middle panel depicts the level of Mdm2 expression and the lower panel, the level of p19^ARF added to the reaction. B. p19^ARF expression increases Mdm2 self-ubiquitination in EJ cells. EJ cells were transfected with the indicated plasmids. Cells were harvested 36 h later and proteins ([…]) were immunoprecipitated using Mdm2 antibodies (2A10). […] The level of p53 immunoprecipitated was monitored in immunoblots using polyclonal antibodies to p53 (middle). […]
Non-denaturing immunoprecipitation and luciferase assay p53/Mdm2 double null cells (Fuch et al., Oncogene 17:2543-2547, 1998), EJ, NIH3T3 mouse fibroblasts and TIG human fibroblasts were maintained in DMEM (Gibco) supplemented with 10% heat-inactivated fetal bovine serum and antibiotics in 5% CO2 Transfections were performed by lipofection (LipofectaminPlus, GIBCO). […] Luciferase activity was determined using the Promega luciferase assay system (Promega, Madison, Wis.). […]

Mdm2 = experiment: Pulse-chase half-life of Mdm2 wt or S218A in normal human fibroblasts; assay type: cell-based
Method: FIG. 16A-16F. A. Activation of p38 increases Mdm2 ubiquitination in vivo. EJ cells were transfected with indicated plasmids. 36 h after transfection cells were harvested and Mdm2 was immunoprecipitated (2A10 antibodies). […] Middle panels show expression levels of Mdm2 and p19^ARF. Lower panels depict phospho-and total p38 levels. B. Mutation at Ser218 of Mdm2 abolishes p38 induced Mdm2 ubiquitination. Normal human fibroblasts were transfected with indicated plasmids. 36 h after transfection cells were harvested and lysed. Mdm2 was immunoprecipitated and proteins were separated on a 8% SDS-PAGE. […] C. Mutation at Ser218 of Mdm2 abrogates p19^ARF-induced Mdm2 degradation. […] Upper panels depict Mdm2-Sumo conjugates (detected via Sumo-1 anitbodies), as well as the 75 kD and 90 kD forms of Mdm2 (detected via Mdm2 antibodies). […] To monitor possible changes in amount of p19 bound to Mdm2 association was monitored using normalized Mdm2 levels at the indicated time-points after UV-treatment.
Normal human fibroblasts (NHF) were transfected with wt or S218A forms of Mdm2 expression vectors (4 μg). ^35S-methionine (1 mCi) was added to the cell cultures 24 h after transfection for 5 h (pulse) followed by chase (2 mM cold methionine) for the indicated time points. […] Immunoprecipated Mdm2 was washed, separated on 10% SDS-PAGE, and analyzed by autoradiography.

T1 sequence (Q00987 whole entry): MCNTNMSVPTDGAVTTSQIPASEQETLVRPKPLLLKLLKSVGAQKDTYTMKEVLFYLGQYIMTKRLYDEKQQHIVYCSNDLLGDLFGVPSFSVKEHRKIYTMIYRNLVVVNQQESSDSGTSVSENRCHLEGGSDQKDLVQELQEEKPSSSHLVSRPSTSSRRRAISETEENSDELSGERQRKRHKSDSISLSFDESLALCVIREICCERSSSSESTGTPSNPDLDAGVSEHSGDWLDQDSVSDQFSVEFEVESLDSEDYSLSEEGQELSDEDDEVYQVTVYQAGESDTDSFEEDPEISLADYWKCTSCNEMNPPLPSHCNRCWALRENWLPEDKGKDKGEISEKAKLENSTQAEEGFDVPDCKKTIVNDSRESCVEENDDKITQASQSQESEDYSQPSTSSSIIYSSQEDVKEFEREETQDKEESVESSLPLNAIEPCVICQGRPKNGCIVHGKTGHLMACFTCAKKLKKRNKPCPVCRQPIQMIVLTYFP

B1: p19^ARF: Mdm2-regulating protein; in vitro translated, bacculovirus-expressed or transfected (protein)
chain: MGRRFLVTVRIQRAGRPLQERVFLVKFVRSRRPRTASCALAFVNMLLRLERILRRGPHRNPGPGDDDGQRSRSSSSAQLRCRFELRGPHYLLPPGARRSAGRLPGHAGGAARVRGSAGCARCLGSPAARLGPRAGTSRHRAIFAFRWVLFVFRWVVFVYRWERRPDRRA
With B1 the “Mdm2 ubiquitination in vitro” value (GST-Mdm2) was “efficient inhibition of Mdm2 ubiquitination in vitro”, the “p53 transcriptional activity (p21-luc)” value [1] was “corresponding increase” and the “effect on half-life of Mdm2 S218A mutant” value (Mdm2) was “minimal effects”.
